Source: patent US20150152192A1 (SAMSUNG ELECTRONICS, published 2015)
Numbering of substitutions follows the chain as printed.

B1: SAIT-ANG-2-AB-2-E6 (scFv form) (scFv, V domains shown)
VH: EVQLLESGGGLVQTGGSLRLSCAASGFTFSDYAMSWVRQAPGKGLEWVSAIYPDSGNKYYADSVKGRFTISRDNSKNTLYLQMNSLRAEDTAVYYCARHSSDPKVKSGYYDDGMDVWGQGTLVAVSS
VL: QSVLTQPPSASGTPGQRVTISCSGSSSNIGNNAVNWYQQLPGTAPKLLIYADSNRPSGVPDRFSGSKSGTSASLAISGLRSEDEADYYCGSWDYSLSGYVFGGGTKLTVLG
notes: scFv from a phage display library, partly purified from E. coli periplasm on Ni-NTA and detected with anti-HA
B2: SAIT-ANG-2-AB-3-D3 (scFv form) (scFv, V domains shown)
VH: EVQLLESGGGLVQPGGSLRLSCAASGFTFSDYDMSWVRQAPGKGLEWVSGISSDDGNTYYADSVKGRFTISRDNSKNTLYLQMNSLRAEDTAVYYCARPTIDKYTLRGYYSYGMDVWGQGTLVTVSS
VL: B1 VL with S23T, N31S, A33Y, N35S, A51S, S53N, N54K, S91T, Y94D, S97N
notes: scFv from a phage display library
B3: SAIT-ANG-2-AB-4-C11 (scFv form) (scFv, V domains shown)
VH: EVQLLESGGGLVQPGGSLRLSCAASGFTFSDYAMSWVRQAPGKGLEWVSSIYPDDGNTYYADSVKGRFTISRDNSKNTLYLQMNSLRAEDTAVYYCARHTSHHTSIDGYYYYGMDGWGQGTLVTVSS
VL: B1 VL with S23T, A33D, N35S, A51S, N54K
notes: as for B2
B4: SAIT-ANG-2-AB-4-F5 (scFv form) (scFv, V domains shown)
VH: EVQLLESGGGLVQPGGSLRLSCAASGFTFSDYDMSWVRQAPGKGLEWVSSISHGDSNKYYADSVKGRFTISRDNSKNTLYLQMNSLRAEDTAVYYCAKSSGIQESPPTYYYYGMDVWGQGTLVTVSS
VL: B1 VL with N31S
notes: as for B2
B5: SAIT-ANG-2-AB-8-A5 (scFv form) (scFv, V domains shown)
VH: EVQLLESGGGLVQPGGSLRLSCAASGFTFSDYYMSWVRQAPGKGLEWVSGIYPSGGSTYYADSVKGRFTISRDNSKNTLYLQMNSLRAEDTAVYYCARDPSTLTYAGFDYWGQGTLVTVSS
VL: B1 VL with A33Y, N35T, N54H, G90A, S91T
notes: as for B2
B6: SAIT-ANG-2-AB-4-F11 (scFv form) (scFv, V domains shown)
VH: EVQLLESGGGLVQTGGSLRLSCAASGFTFSDYAMSWVRQAPGKGLEWVSSIYPDDGNTYYADSVKGRFTISRDNSKNTLYLQMNSLRAEDTAVYYCAKHPVRLNLHPMYYYYGMDVWGQGTLVTVSS
VL: B1 VL with S23T, N35S, A51S, N54Q, G90A, S91T, G98A
notes: as for B2
B7: SAIT-ANG-2-AB-7-C9 (scFv form) (scFv, V domains shown)
VH: EVQLLESGGGLVQPGGSLRLSCAASGFTFSNYAMSWVRQAPGKGLEWVSAISSGGGNIYYADSVKGRFTISRDNSKNTLYLQMNSLRAEDTAVYYCAKSGIQPSPPSMSSAYAMDVWGQGTLVTVSS
VL: B1 VL with A33D, N35Y, D52N, N54H, S91T
notes: as for B2

Target: T1, human Ang2 polypeptide (R&D systems; Accession #O15123; SEQ ID NO: 172) (human, UniProt O15123 19-496)
T1 construct: Bought protein; also called hAng2; human Ang2 protein
T1 sequence: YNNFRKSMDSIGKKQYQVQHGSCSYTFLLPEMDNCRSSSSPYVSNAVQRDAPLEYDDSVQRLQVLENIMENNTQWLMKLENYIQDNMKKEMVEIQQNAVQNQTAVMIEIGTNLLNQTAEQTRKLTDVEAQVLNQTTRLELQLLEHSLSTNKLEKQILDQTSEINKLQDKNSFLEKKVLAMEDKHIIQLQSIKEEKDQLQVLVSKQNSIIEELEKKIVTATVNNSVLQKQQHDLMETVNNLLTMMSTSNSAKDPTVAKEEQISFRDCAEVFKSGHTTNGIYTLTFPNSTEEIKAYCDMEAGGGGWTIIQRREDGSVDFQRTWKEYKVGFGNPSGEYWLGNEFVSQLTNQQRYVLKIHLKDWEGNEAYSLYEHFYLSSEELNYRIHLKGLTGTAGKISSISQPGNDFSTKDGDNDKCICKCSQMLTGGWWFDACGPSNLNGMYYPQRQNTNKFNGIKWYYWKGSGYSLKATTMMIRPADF
Assay: ELISA, antigen coated, scFv, anti-HA-HRP; 50% binding concentration (Kd)
Method: (§1) To measure binding of the antibodies prepared above with each antigen, ELISA was performed. A 96-well MaxiSorp™ flat-bottom plate (Nunc) was coated with 5˜20 μg/ml of human Ang2 and mouse Ang2 (Accession # NP_{—}031452) (both, R&D Systems). After that, the plate was washed five times with 0.05% (v/v) Tween-20-containing PBS and then blocked with 1% (v/v) BSA-containing PBS at a room temperature for 2 hours. The anti-Ang2 antibodies in their scFv forms prepared above were added to each well of the plate which was then allowed to react at a room temperature for 2 hours.
(§2) Thereafter, the plate was washed five times with 0.05% Tween-20-containing PBS and then, an HRP-conjugated anti-HA (HA-probe Antibody (F-7) HRP conjugated) antibody (Santacruz) diluted in 1% (v/v) BSA-containing PBS at 1:1,000 ratio (v/v) was added in the amount of 50 μl to each well to react at a room temperature for 1 hour, followed by washing five times with 0.1% (v/v) Tween-20-containing PBS. Finally, 100 μl of TMB substrate (cell signal) was added to each well of the plate to induce color development at a room temperature for 3 min and then, the reaction was ceased by the addition of 50 μl of 5N H₂SO₄ solution and OD450 values were measured on a plate reader (Molecular Devices).

Binder | Kd
B1 | 9.3 nM
B2 | 4.3 nM
B3 | 4.9 nM
B4 | 12.1 nM
B5 | 5.3 nM
B6 | 3 nM
B7 | 3.8 nM

Target: T2, mouse Ang2 (Accession # NP-031452) (R&D Systems) (mouse, UniProt O35608 19-496, limits assumed)
T2 construct: Bought protein; also called mAng2
T2 sequence (looked up): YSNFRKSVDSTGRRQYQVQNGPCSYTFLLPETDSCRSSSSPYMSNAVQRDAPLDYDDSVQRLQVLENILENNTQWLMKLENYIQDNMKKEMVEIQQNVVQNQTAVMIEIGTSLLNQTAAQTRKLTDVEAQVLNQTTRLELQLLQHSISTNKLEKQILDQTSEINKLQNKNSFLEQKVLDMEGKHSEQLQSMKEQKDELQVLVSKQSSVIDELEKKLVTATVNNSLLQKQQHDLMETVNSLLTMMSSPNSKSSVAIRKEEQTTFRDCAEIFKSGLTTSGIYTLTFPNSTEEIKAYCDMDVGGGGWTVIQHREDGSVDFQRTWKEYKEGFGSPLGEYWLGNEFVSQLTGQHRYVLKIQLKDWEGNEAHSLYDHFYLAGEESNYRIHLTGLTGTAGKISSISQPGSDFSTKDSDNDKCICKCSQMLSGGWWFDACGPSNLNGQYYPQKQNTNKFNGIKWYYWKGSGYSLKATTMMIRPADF
Assay: as above
Method: as §1, §2

Binder | Kd
B1 | 5.1 nM
B2 | 37.8 nM
B3 | 28.6 nM
B4 | 23.8 nM
B5 | 11.7 nM
B6 | 20.7 nM
B7 | 8.7 nM
